Values joined by “and” are separate entries in the source; they are usually repeats but may differ in a detail not shown here. Equal values may be shown once.
Key:
[1] = biological target: mouse PKM2 (AA 1-531), recombinant (mouse) (UniProt P52480); test: SEC; Superdex 200 increase 10/300 GL, 150 mM NaCl, 20 mM Tris-HCl; purified PKM2 incubated with or without Shikonin; dimer and tetramer mixture eluted at 13 ml
[2] = biological target: PKM2 (endogenous, RAW264.7 macrophages) (mouse (endogenous in RAW264.7)) (UniProt P52480); test: cross-linking; RAW264.7 cells pre-treated 1 h with Shikonin (0.5, 1, 2 μM) or not, challenged with LPS (250 ng/ml) + IFN-γ (100 ng/ml) for 24 h; cells cross-linked with disuccinimidyl suberate (500 nM as printed) 30 min at room temperature, quenched with Tris-HCl pH 7.5; lysates analysed by western blot for PKM2

PKM2 (endogenous, RAW264.7 macrophages), P52480 1-531 (enzyme; other documents disagree on this pair), sequence (P52480 whole entry): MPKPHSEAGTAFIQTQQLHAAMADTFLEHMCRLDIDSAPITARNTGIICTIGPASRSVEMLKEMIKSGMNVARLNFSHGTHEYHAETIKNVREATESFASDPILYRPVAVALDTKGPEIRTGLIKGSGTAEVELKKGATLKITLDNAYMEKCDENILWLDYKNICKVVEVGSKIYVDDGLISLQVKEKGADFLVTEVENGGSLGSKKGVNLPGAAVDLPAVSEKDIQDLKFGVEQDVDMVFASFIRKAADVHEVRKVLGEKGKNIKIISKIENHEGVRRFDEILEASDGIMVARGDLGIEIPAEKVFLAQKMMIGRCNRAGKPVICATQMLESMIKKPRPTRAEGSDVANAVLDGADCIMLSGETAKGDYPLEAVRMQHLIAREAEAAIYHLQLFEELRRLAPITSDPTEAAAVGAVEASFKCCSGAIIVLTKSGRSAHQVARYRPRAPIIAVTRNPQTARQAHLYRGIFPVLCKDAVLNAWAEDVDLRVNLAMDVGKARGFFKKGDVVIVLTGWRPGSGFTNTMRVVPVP
mouse PKM2 (AA 1-531), recombinant, P52480 1-531 (enzyme; other documents disagree on this pair), sequence (P52480 whole entry, the tested form may be a part): as the sequence (P52480 whole entry) above

For “mouse PKM2 (AA 1-531), recombinant, P52480 1-531 (enzyme; other documents disagree on this pair)”, the stoichiometry N [1] was 2 and 4.
“PKM2 (endogenous, RAW264.7 macrophages), P52480 1-531 (enzyme; other documents disagree on this pair)” was tested, and the stoichiometry N [2] was 4 and 2.
